“And” between values parts separate entries of the source, which are not always exact repeats. Equal entries are not always repeated.
B1: Rhodobacterium sp. HTCC2654 epoxide hydrolase rEEH (RH), SEQ ID NO: 32 (Maritimibacter alkaliphilus HTCC2654) (protein)
chain: MNDKTFIETNGIRLATRIEGDGPLVILVHGFPETAYSWRKQASPLVEAGYRVCIPDVRGYGNSDAPEAVSAYAMEVMTRDFLGLAQALSEVPAVIVGHDWGAPLAWNTARLFPEQFRAVAGLSVPYAPPGDVAPIDLYHKLFTDKGRFFYQVYFQDEGVAEAELEADVEDSLAKFYYAWSGDCPPNGWPNDKAHGDPVLKGLPRPDLPLPWLTQDDLDRYAADFRTSGFRGPLNRYRNQREDHAFLKAHPSNPIIQQPSLFLYGDRDPVLTMFRTPPEDLLPKTLADLRGVHRLPGVGHWTQQEAPEAVNKALIDWLATL
notes: soluble-EH-like alpha/beta hydrolase
B2: Erythrobacter litoralis HTCC2594 epoxide hydrolase rEEH2 (EEH2), SEQ ID NO: 15 (Erythrobacter litoralis HTCC2594) (protein)
chain: MAGPSLGEWKAKAQHFAYDGLQIAFWTGGKPDARPLLLVHGYPTASWDWHRVWETLGSKYHLVAPDMIGFGLSDKPRSGYSIHRQADMHVALLDHLGIGAFDALVHDYGVSVGQELLARRAERSAAQGLGQTVFLNGGIFPDQHRPRPIQKLGTSPLGFLVGLLTNREKFGRSFSEVFGPDTQPGAQELDEFWDLVSHNGGNRIMHKLLHYIADRKEHAERWFDALRIAQGDIGLINGALDPVSGRHAYEAWRERLPDARHHLIPTVGHYPQVEDPQTVSRVTLDWLAR
notes: as for B1
B3: Erythrobacter litoralis HTCC2594 epoxide hydrolase rEEH3 (EEH3), SEQ ID NO: 17 (Erythrobacter litoralis HTCC2594) (protein)
chain: MPDPASGIAINRVPANGLEFEVAMAGEGDHLALMLHGFPELHFSWRHQMPLLAEMGYRVWAPNMRGYGETTRPTEVRDYALDHLTQDVAALIDASGATKVTLIAHDWGAIIAWYFAILKLRPLERLVIMNVPHPKVLQRELRRWEQIKKSWYVFFFQLPWLPEKRIGADSGKRIGELFAQTSCNPERFGPDVKAVYAAGAARPGAPRAMVNYYRAAMRHRDTIDPGDFRVDVPTLLVWGEEDVALNIRCTEGTEQWVPDITVKRLPNVSHWVQQDAPDEVNAILREWLPKPAPAS
notes: as for B1

Key:
[1] = Enantioselective hydrolyzing activity of purified EHases toward SO; assay type: biochemical; settings: for enantiomer preference in hydrolysis of styrene oxide, in words: purified enzyme; for Hydrolysis rate SO (R): (R)-enantiomer; for Hydrolysis rate SO (S): (S)-enantiomer
Method: (§1) Kinetic parameters of the rEEH1, rEEH2, rEEH3, sEEH, nEEH, and rEEH were determined by a GC analysis using (R)- or (S)- styrene oxide substrate. 100 ul of purified EHases were mixed with various concentrations of (R)- or (S)- styrene oxide in a 10 ml tube containing 1 ml of potassium phosphate buffer (100 mM, pH 8.0), and shake-incubated at 200 rpm and a temperature of 30° C. The extraction mixtures were extracted with 2 ml of hexane, and enantiomeric excess [ee; ee=100×(S−R)/(S+R)] toward enantiopure styrene oxide was analyzed with a chiraldex gamma-cyclodextrin trifluoroacetyl(G-TA) capillary GC column. Wherein, the FIG. 8 was diagramed with GC analysis for the hydrolyzing activities of enantioselective EHases (rEEH1, rEEH2, and rEEH3) toward racemic styrene oxide.
(§2) Kinetic parameters were estimated by non-linear regression analysis using a Sigma Plot program, and various substrates as depicted in FIG. 1 were also tested for the enantioselective hydrolyzing activity by rEEH1, rEEH2, rEEH3, sEEH, nEEH, and rEEH.

[2] = substrate: c1ccc([C@@H]2CO2)cc1; experiment: Kinetic parameters of purified rEEH by GC analysis with (R)- or (S)-styrene oxide; assay type: biochemical, Rhodobacterium sp. HTCC2654; settings: other: 100 mM potassium phosphate pH 8.0, 30° C.
Method: as §1, §2

[3] = substrate: c1ccc([C@H]2CO2)cc1; experiment: as above; assay type: biochemical, Rhodobacterium sp. HTCC2654; settings: other: 100 mM potassium phosphate pH 8.0, 30° C.
Method: as §1, §2

[4] = Optimum activity conditions of sEEH, nEEH and rEEH; assay type: biochemical
Method: After cloning the genes into pET-24a (+) expression vector, the vector was introduced into BL21-CondonPlus(DE3)-RP (Novagen), and then separated by SDS-PAGE. […] Also, the optimum activities of sEEH, nEEH, and rEEH occurred at neutral pH and mesophilic conditions (30 to 40° C.).

[5] = Enantioselective hydrolyzing activity of purified EHases toward EB; assay type: biochemical; settings: for Hydrolysis rate EB (R): (R)-enantiomer; for Hydrolysis rate EB (S): (S)-enantiomer
Method: as §1, §2

[6] = Effects of pH and temperature on the EHase activity of rEEH1, rEEH2 and rEEH3; assay type: biochemical; settings: for optimum temperature (maximum hydrolysis rate): 10 to 70° C. at pH 7.5; for optimum pH: activity toward styrene oxide, pH 4.0 to 10.0
Method: The effect of pH on the EHase activity was measured with 50 mM sodium acetate-acetic acid buffer (pH 4.0 and 6.0), 50 mM MES buffer (pH 6.0 to 7.0), 50 mM Phosphate buffer (pH 7.0 to 9.0), and 50 mM Glycine buffer (pH 9.0 and 10.0), and the optimum reaction temperature on the EHase activity was measured over a temperature of range from 10 to 70° C. at pH 7.5.

[7] = Enantioselective hydrolyzing activity of purified EHases toward ECH; assay type: biochemical; settings: for Hydrolysis rate ECH (R): (R)-enantiomer; for Hydrolysis rate ECH (S): (S)-enantiomer
Method: as §1, §2

[8] = Kinetic parameters of purified EHases by GC analysis, (R)-styrene oxide; assay type: biochemical; settings: (R)-enantiomer of styrene oxide, Table 5
Method: as §1, §2

[9] = Enantioselective hydrolyzing activity of purified EHases toward GPE; assay type: biochemical; settings: for Hydrolysis rate GPE (R): (R)-enantiomer; for Hydrolysis rate GPE (S): (S)-enantiomer
Method: as §1, §2

[10] = Kinetic parameters of purified EHases by GC analysis, (S)-styrene oxide; assay type: biochemical; settings: (S)-enantiomer of styrene oxide, Table 5
Method: as §1, §2

[11] = Enantioselective hydrolyzing activity of purified EHases toward EX; assay type: biochemical; settings: for Hydrolysis rate EX (R): (R)-enantiomer; for Hydrolysis rate EX (S): (S)-enantiomer
Method: as §1, §2

[12] = substrate: c1ccc([C@@H]2CO2)cc1; experiment: Kinetic parameters of purified rEEH2 by GC analysis with (R)- or (S)-styrene oxide; assay type: biochemical, Erythrobacter litoralis HTCC2594; settings: other: 100 mM potassium phosphate pH 8.0, 30° C.
Method: as §1, §2

[13] = substrate: c1ccc([C@H]2CO2)cc1; experiment: as above; assay type: biochemical, Erythrobacter litoralis HTCC2594; settings: other: 100 mM potassium phosphate pH 8.0, 30° C.
Method: as §1, §2

[14] = Substrate selectivity of rEEH1, rEEH2 and rEEH3 toward various epoxide substrates; assay type: biochemical; settings: purified enzyme
Method: Also, the substrate selectivity of rEEH1, rEEH2 and rEEH3 toward various epoxide substrates depicted in FIG. 1 was same to Table 4.
as §2

[15] = substrate: c1ccc([C@@H]2CO2)cc1; experiment: Kinetic parameters of purified rEEH3 by GC analysis with (R)- or (S)-styrene oxide; assay type: biochemical, Erythrobacter litoralis HTCC2594; settings: other: 100 mM potassium phosphate pH 8.0, 30° C.
Method: as §1, §2

[16] = substrate: c1ccc([C@H]2CO2)cc1; experiment: as above; assay type: biochemical, Erythrobacter litoralis HTCC2594; settings: other: 100 mM potassium phosphate pH 8.0, 30° C.
Method: as §1, §2

Molecule	enantiomer preference in hydrolysis of styrene oxide, in words [1]	Hydrolysis rate SO (R) [1]	Hydrolysis rate SO (S) [1]	Hydrolysis rate EB (R) [5]	Hydrolysis rate EB (S) [5]	optimum temperature (maximum hydrolysis rate) [6] [°C]	optimum pH [6]	Hydrolysis rate ECH (R) [7]	Hydrolysis rate ECH (S) [7]	kcat Km [8] [M⁻¹ s⁻¹]	Hydrolysis rate GPE (R) [9]	Hydrolysis rate GPE (S) [9]	kcat Km [10] [M⁻¹ s⁻¹]	Hydrolysis rate EX (R) [11]	Hydrolysis rate EX (S) [11]	further results
B1	hydrolyzed (R)-enantiopure styrene oxide															Km [2]: 5.2 ± 0.3 mM; Vmax [2]: 54.1 µmol/min/mg; kcat [2]: 32 s⁻¹; kcat/Km [2]: 6160 M⁻¹ s⁻¹; Km [3]: 4.1 ± 0.3 mM; Vmax [3]: 11.3 µmol/min/mg; kcat [3]: 6.7 s⁻¹; kcat/Km [3]: 1630 M⁻¹ s⁻¹; optimum temperature [4]: 30-40 °C
B2	both of (S)-styrene oxide and (R)-styrene oxide were hydrolyzed at an equal rate	0.05 (×10^−2) mg/min	0.06 (×10^−2) mg/min	0.08 (×10^−2) mg/min	0.08 (×10^−2) mg/min	55	7.5	0.23 (×10^−2) mg/min	0.23 (×10^−2) mg/min	300	0.06 (×10^−2) mg/min	0.07 (×10^−2) mg/min	200	0.07 (×10^−2) mg/min	0.07 (×10^−2) mg/min	Km [12]: 5.49 mM and 5.4 mM; Vmax [12]: 0.11 µmol/min and 0.1 µmol/min; kcat [12]: 1.6 s⁻¹; Km [13]: 6.18 mM and 6.1 mM; Vmax [13]: 0.12 µmol/min and 0.1 µmol/min; kcat [13]: 1.7 s⁻¹
B3	(S)-styrene oxide was hydrolyzed faster than (R)-styrene oxide	0.10 (×10^−2) mg/min	0.14 (×10^−2) mg/min	0.08 (×10^−2) mg/min	0.11 (×10^−2) mg/min	45	8.0	0.26 (×10^−2) mg/min	0.28 (×10^−2) mg/min	1600	0.10 (×10^−2) mg/min	0.10 (×10^−2) mg/min	1700	0.17 (×10^−2) mg/min	0.09 (×10^−2) mg/min	substrate selectivity, in words [14]: hydrolyzed enantioselectively aliphatic epoxides at C-1 position and styrene oxide; Km [15]: 2.61 mM and 2.6 mM; Vmax [15]: 0.29 µmol/min and 0.2 µmol/min; kcat [15]: 4.3 s⁻¹; Km [16]: 3.71 mM and 3.7 mM; Vmax [16]: 0.43 µmol/min and 0.4 µmol/min; kcat [16]: 6.5 s⁻¹
